B1: Heat shock protein homolog SSE1 (Saccharomyces cerevisiae), P32589 (parent)
chain: MSTPFGLDLGNNNSVLAVARNRGIDIVVNEVSNRSTPSVVGFGPKNRYLGETGKNKQTSNIKNTVANLKRIIGLDYHHPDFEQESKHFTSKLVELDDKKTGAEVRFAGEKHVFSATQLAAMFIDKVKDTVKQDTKANITDVCIAVPPWYTEEQRYNIADAARIAGLNPVRIVNDVTAAGVSYGIFKTDLPEGEEKPRIVAFVDIGHSSYTCSIMAFKKGQLKVLGTACDKHFGGRDFDLAITEHFADEFKTKYKIDIRENPKAYNRILTAAEKLKKVLSANTNAPFSVESVMNDVDVSSQLSREELEELVKPLLERVTEPVTKALAQAKLSAEEVDFVEIIGGTTRIPTLKQSISEAFGKPLSTTLNQDEAIAKGAAFICAIHSPTLRVRPFKFEDIHPYSVSYSWDKQVEDEDHMEVFPAGSSFPSTKLITLNRTGDFSMAASYTDITQLPPNTPEQIANWEITGVQLPEGQDSVPVKLKLRCDPSGLHTIEEAYTIEDIEVEEPIPLPEDAPEDAEQEFKKVTKTVKKDDLTIVAHTFGLDAKKLNELIEKENEMLAQDKLVAETEDRKNTLEEYIYTLRGKLEEEYAPFASDAEKTKLQGMLNKAEEWLYDEGFDSIKAKYIAKYEELASLGNIIRGRYLAKEEEKKQAIRSKQEASQMAAMAEKLAAQRKAEAEKKEEKKDTEGDVDMD

Variants of: B1
Details: with hsp71_yeast SSA1, P10591
Chain of hsp71_yeast SSA1, P10591 (P10591 whole entry): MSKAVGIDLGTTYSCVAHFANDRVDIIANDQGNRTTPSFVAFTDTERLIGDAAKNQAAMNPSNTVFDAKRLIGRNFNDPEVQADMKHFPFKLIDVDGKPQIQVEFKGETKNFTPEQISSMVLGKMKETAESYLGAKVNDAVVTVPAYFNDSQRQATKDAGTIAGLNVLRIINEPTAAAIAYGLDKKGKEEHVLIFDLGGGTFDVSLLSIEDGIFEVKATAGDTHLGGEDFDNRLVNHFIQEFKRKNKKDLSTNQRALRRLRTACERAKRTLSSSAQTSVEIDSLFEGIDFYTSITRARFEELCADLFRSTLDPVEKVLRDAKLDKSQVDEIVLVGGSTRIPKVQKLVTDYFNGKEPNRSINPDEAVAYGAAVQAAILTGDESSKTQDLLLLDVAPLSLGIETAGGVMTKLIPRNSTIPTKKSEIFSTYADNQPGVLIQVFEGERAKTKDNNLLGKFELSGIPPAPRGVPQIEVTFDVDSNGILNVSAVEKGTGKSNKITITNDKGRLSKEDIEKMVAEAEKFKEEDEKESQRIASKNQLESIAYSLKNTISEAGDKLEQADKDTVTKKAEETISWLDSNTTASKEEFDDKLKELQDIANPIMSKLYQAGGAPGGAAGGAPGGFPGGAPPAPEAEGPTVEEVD
In the case of N572Y;E575A, the “effect of a mutation on the interaction” value is reported as “decreasing interaction”.
With L489A;H490A the “effect of a mutation on the interaction” value was “decreasing interaction”.
With D396A the “effect of a mutation on the interaction” value was “decreasing interaction”.
In the case of T365V;N367S, the “effect of a mutation on the interaction” value is reported as “decreasing interaction”.
In the case of E554A;M557S;L558S, the “effect of a mutation on the interaction” value is reported as “decreasing interaction”.
A280T;N281A was tested, and the “effect of a mutation on the interaction” value was “decreasing interaction”.
With F392A;F394A the “effect of a mutation on the interaction” value was “decreasing interaction”.
